This is an account of results in paper PMC5413573.

The assay addresses RseP of E. faecalis LMG3358 (membrane-bound Zn-dependent site-2 protease) (E. faecalis) (UniProt Q9RPP2).
Sequence of UniProt Q9RPP2 (Q9RPP2 whole entry): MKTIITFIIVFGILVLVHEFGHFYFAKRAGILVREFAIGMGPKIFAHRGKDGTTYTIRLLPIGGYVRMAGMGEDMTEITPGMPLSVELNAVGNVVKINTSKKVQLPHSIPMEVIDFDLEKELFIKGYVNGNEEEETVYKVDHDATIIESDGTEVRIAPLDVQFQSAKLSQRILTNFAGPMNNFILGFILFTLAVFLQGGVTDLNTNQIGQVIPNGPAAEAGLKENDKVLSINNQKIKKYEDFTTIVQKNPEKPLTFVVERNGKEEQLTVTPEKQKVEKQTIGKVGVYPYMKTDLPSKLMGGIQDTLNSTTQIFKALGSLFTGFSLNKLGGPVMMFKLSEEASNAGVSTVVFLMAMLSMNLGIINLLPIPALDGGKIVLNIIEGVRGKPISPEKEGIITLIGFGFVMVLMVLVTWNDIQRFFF

Enterocin EJ97 (peptide): the MIC (nM) of the bacteriocin against S. pneumoniae ds220 induced to express E. faecalis rseP (microtiter plate growth inhibition; non-induced cells and cells without rseP >4500 nM) worked out at 18 nM.

Enterocin K1 (peptide) registered an MIC (nM) of the bacteriocin against S. pneumoniae ds220 induced to express E. faecalis rseP (microtiter plate growth inhibition; non-induced cells and cells without rseP >5500 nM) of 700 nM.
